# Reference: the supplement of paper PMC12042874
# ± gives the uncertainty stated by the source.
# Assay: amyloid nucleation score (Sup35N fusion, yeast selection) (log enrichment); library NNK2; higher = more nucleation; inactive = no reads after selection
# Summary of the method: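 The nucleation score equals the log enrichment of output over input reads from DiMSum, centred on the mode score of non-aggregating sequences. It was computed only for sequences with 100 or more input reads. The reads came from Illumina sequencing of plasmid inserts from psi-negative yeast expressing Sup35N fused to peptides of 20 random codons, induced with 100 μM copper sulfate for 24 hours and grown 7 days at 30°C without adenine and uracil.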
row,Substance,amyloid nucleation score
1,KHCQLLSVSAECDRPGLWKE,0.75 ± 0.17
2,KHLMMDCAKRMQLRNIRDES,0.216 ± 0.2
3,KITMDPGLVRIHNFGQTSLV,0.408 ± 0.62
4,KIVWCLVYNRDYYLQYRTIS,-0.625 ± 0.27
5,KIYSTSYDNNTSYISCVWSH,6.708 ± 0.029
6,KKAIFWWFWDHDSCL,inactive
7,KKNSAVHVYF,-1.01 ± 1.1
8,KKSHFLKRYNTAYVGRHLVH,-0.07 ± 0.53
9,KKVFLTFLEFVFNAISGWWV,-0.67 ± 0.79
10,KLFRQQCDS,0.247 ± 0.8
11,KLGLVKMSPYIMFTHVCDGW,-0.217 ± 0.23
12,KLIYLGGSSEFGTHFSA,-0.429 ± 0.61
13,KLLAVVLFGDGLAFNN,3.24 ± 0.064
14,KLPFELKSDDFTCFNWANSR,-0.097 ± 1.1
15,KLQLVTLW,3.66 ± 0.072
16,KLRGIPYRF,inactive
17,KLRIVMMNRIFTSNL,5.16 ± 0.1
18,KLVCRMTGCFWVVFIACPYY,0.175 ± 0.35
19,KLVLSNSALFRRTFAINPV,0.626 ± 0.8
20,KLYLVWPTCGDGCSFGLRAT,-0.194 ± 0.24
21,KMPWMTCSHVTFTRIHSKIS,-0.57 ± 0.48
22,KMSELWFVIKPWFWIMGLEK,-0.403 ± 1.1
23,KNDLPRKKVL,0.128 ± 0.4
24,KNIVVTSPVLMNST,-0.179 ± 0.63
25,KNKWRSMV,0.953 ± 0.18

row,Substance,amyloid nucleation score
1,KNYVYWDLIHRFCLSTMR,1.62 ± 0.52
2,KPWTYDMVCSRFTSMWFCDY,0.644 ± 0.38
3,KRDFPISATSRLCVAFFFIY,-0.975 ± 0.38
4,KRDLGFRVVLWYLW,-0.942 ± 0.6
5,KRGRDV,-0.292 ± 0.49
6,KRKLSKYFLRLKLKCFWVM,-0.753 ± 0.48
7,KRLVEAVKFWWQVRNGLKVR,0.518 ± 0.29
8,KRQSRAVMVS,0.037 ± 0.63
9,KRSKSR,inactive
10,KRSSGRVFHPRMSRW,0.641 ± 0.4
11,KRYLTGSEVIVGWCC,0.329 ± 0.38
12,KSCFWLRDI,-0.457 ± 0.28
13,KSCGNGHISDVIYLRGMLGV,-0.538 ± 0.55
14,KSESLLPLNWAHARALIHRA,1.1 ± 0.36
15,KSHHGWSTIRCNRWYIS,inactive
16,KSPCIVQTTILYNYMAVVIS,3.83 ± 0.12
17,KSPNHSDRVQWMKYTFWYTL,-0.003 ± 1.1
18,KTFFVYIRSNYCV,-1.24 ± 0.62
19,KTGVGTYIPQWDCNGHEMVS,0.423 ± 0.35
20,KTISNYVAGN,inactive
21,KTMANI,-0.403 ± 0.37
22,KTQKLLGRAWRNYGYGCCVR,-0.487 ± 1.1
23,KTSWFGYSWNDHHSIRHQCS,0.84 ± 0.43
24,KTSWVVYDGFRARDARSWRS,-0.245 ± 0.48
25,KTYDGGFKRNRDEVGPKPGE,-0.326 ± 1

row,Substance,amyloid nucleation score
1,KVEALDVTRGIVPGKSLAVR,0.249 ± 0.55
2,KVHNLMGESGIKLYYVRFAH,inactive
3,KVIMVLFRFDMSIWGWQTDI,-0.628 ± 0.76
4,KVLRLIRY,1.25 ± 0.48
5,KVMNNIL,-0.093 ± 0.36
6,KVNKCIIRQLDLNMPLASRW,0.584 ± 0.46
7,KVQNWMLNTHGFYSLRGFDQ,-0.857 ± 0.41
8,KVRLGTLTYICYANSNRLCP,2.37 ± 0.12
9,KVVITQSRVGTLESVKVFYV,1.77 ± 0.19
10,KVYINHGFGNFEVCSRWVFE,-0.055 ± 1.1
11,KWFGSRFYYLYKPPLFSHLA,inactive
12,KWIYQIFPVMALECKGVLH,2.85 ± 0.15
13,KWLTAHAAYLWSETEVRMVV,0.673 ± 0.27
14,KWNVFGDDGMREARLNLSGV,-0.69 ± 0.74
15,KYERYLNRFSLLLRTAMVHR,-0.362 ± 0.29
16,KYIYVYNSIGVP,-0.277 ± 1
17,KYTGMKYRPTVCLGVEVQLK,3.83 ± 0.062
18,KYVVVYDSVYGFSVSGFSLW,0.777 ± 0.19
19,LACLVIFMTVSDMDVLSGLF,-0.39 ± 0.21
20,LACVKMFSGVFV,0.06 ± 0.65
21,LADTLVSESKYKWLF,-0.032 ± 1.1
22,LAFYSFIRYTRLSIEMVAIS,-0.741 ± 0.31
23,LAGCSMSGVVEC,1.13 ± 0.22
24,LAGITWISSTVRDVSYMRRR,2.72 ± 0.1
25,LAKRGCVIVCFLTFHYTIRR,-0.348 ± 0.28

row,Substance,amyloid nucleation score
1,LALSFIMMCPYR,4.95 ± 0.079
2,LALSRYFGL,-0.909 ± 0.54
3,LANKAYYVCLV,0.022 ± 0.62
4,LANNSERMAAQDEVYSNCRM,-0.506 ± 0.24
5,LAPCISNMSRLL,-1.25 ± 0.36
6,LAQMQR,-0.169 ± 0.8
7,LAQWLTRLYAK,1.12 ± 0.4
8,LASTALVLDP,1.14 ± 0.31
9,LAYCGYIHDLFGGILIKLDG,-0.081 ± 1.1
10,LCEALRFVIYCKLTSFVPFN,-0.632 ± 0.61
11,LCFYPVTTCKPIFRPLYVLP,0.562 ± 0.45
12,LCGAKRFMRVQAFEQNVYSR,0.401 ± 0.37
13,LCGSQFL,0.705 ± 0.66
14,LCKFFDTVVSMLGSVCSGNQ,3.22 ± 0.1
15,LCKVCSMITVGSGSGSVYSQ,inactive
16,LCLEAWERRCI,-0.588 ± 0.17
17,LCLIGRYRMSERALRLRWLV,2.54 ± 0.11
18,LCNAKAS,-0.815 ± 0.64
19,LCNSYYFFDSCVIEPYIPLL,5.646 ± 0.054
20,LCPYYNLWS,inactive
21,LCSWLEMGFIIRFAGIVRLD,-0.292 ± 0.54
22,LCVEELMTCVCWVRS,0.47 ± 0.26
23,LCVIIMFLIIYYNEEFVWSQ,inactive
24,LCYHLYTRVITCFLLIDLVC,-0.27 ± 1.1
25,LCYPCRACPGTKNALADRLG,3.56 ± 0.087

row,Substance,amyloid nucleation score
1,LDCIS,-0.647 ± 0.55
2,LDDPGLK,0.76 ± 0.14
3,LDDVNMWFHIGNGRGGGELW,0.092 ± 1.1
4,LDIYYFKKNSWAFHGSAGYP,1.87 ± 0.11
5,LDKAIHSWGVLDWAVKQDNA,0.293 ± 0.26
6,LDLCTPRSNKTMVNHDINYF,-1.64 ± 0.77
7,LDLMKSSLGCQKG,-0.001 ± 0.23
8,LDMGCNRPEVYGNKCAMVSW,0.75 ± 0.21
9,LDTCVFHHLVGIEKATIYR,0.455 ± 0.48
10,LDVIDGYWTGRMTSSFSWMN,0.679 ± 0.47
11,LDYLDSVSINGIVQFKQMVW,-0.285 ± 0.26
12,LELVCRPISMALLEEWKGTR,0.393 ± 0.48
13,LESVWHILGGFGIMVFYITK,inactive
14,LESYSQCTLTHSNCVLTDEC,0.909 ± 0.57
15,LEVHKGGLNVLSHEGLDVET,1.19 ± 0.4
16,LEYERC,-0.097 ± 1.1
17,LFAYNDAFSEYFTITYVYQ,-1.14 ± 1.1
18,LFCSYPNTASRKLAIGIVAS,0.438 ± 0.55
19,LFFTKGKLFNEAI,inactive
20,LFIRSIRPMDVVGVTLSAVE,0.764 ± 0.41
21,LFISVSYSEFVFQIQDALRC,1.48 ± 0.12
22,LFLLIIFLCTTYVVIKDPTH,2.73 ± 0.12
23,LFLSLRVRRYVQHKKSGSAG,0.082 ± 1.1
24,LFNEDACTFLTMCANIKVGQ,4.97 ± 0.081
25,LFPFRASRGPVPYKRDQ,1.89 ± 0.52

row,Substance,amyloid nucleation score
1,LFQSLNLISINSVVPYEPVT,2.43 ± 0.092
2,LFSCFKTEWFCITRMDGLIM,5.731 ± 0.036
3,LFSILAGS,0.575 ± 0.46
4,LFTIVTTFKRS,6.443 ± 0.056
5,LFVALVGDLFCCWVCGSYGV,-1.43 ± 0.78
6,LFVASVSLTAHNRGGDTWRR,5.8 ± 0.084
7,LFVLDNMDDIWNSIISWVGR,-0.295 ± 0.65
8,LFVPGLNR,0.047 ± 0.31
9,LFWFLCNVMERYRWNVDAYR,-0.625 ± 0.45
10,LFYGLGLICFLISFPIELNH,inactive
11,LFYGNWPVFKGVLFCAVLVG,0.092 ± 0.79
12,LFYSPSVGCWFLFSYGPHIG,inactive
13,LGGSSENYGVDCNYYPEMWG,-1.24 ± 0.54
14,LGGTY,-0.449 ± 0.64
15,LGGVSSHSELMPRVKVNWLT,inactive
16,LGGWLNGKGDPSMTASTSAS,0.799 ± 0.32
17,LGHHIVFAVTPKWTYDDDIK,0.679 ± 0.62
18,LGHHVQYLRFVWLWQND,1.17 ± 0.22
19,LGITITARAIIE,-0.898 ± 1.1
20,LGLCHMLLSDAGWRVRCRGK,0.276 ± 1
21,LGMCYWGLVTCH,0.749 ± 0.38
22,LGNIGRTFMYHS,1.09 ± 0.27
23,LGNRLSKIAVGTSFKLFKK,0.138 ± 1.1
24,LGPALFICSDEGDMPL,-0.598 ± 0.63
25,LGSCHAMRLIEDGSGMEWMF,0.645 ± 0.37

row,Substance,amyloid nucleation score
1,LGTSWHHRAKE,3.31 ± 0.086
2,LGVCICPCRAPEMKDTSHDA,4.92 ± 0.076
3,LGYDDGYVAGRGKADMFSLD,inactive
4,LGYFFGSTFSRAVLFVRLRR,-0.097 ± 0.52
5,LHGVVGLFKY,-1.55 ± 0.41
6,LHLFAKSATSLVIVFAQDLI,-0.455 ± 0.42
7,LHNLAAGNSRLTSNLMFALA,inactive
8,LHSATNG,0.208 ± 0.37
9,LHTYYGMCLPRVENISENRV,inactive
10,LHVHLGSEGPLHNKIVDAAK,-0.168 ± 0.42
11,LIEAESSDRGPYVPNQCGWN,1.11 ± 0.68
12,LIFLSDFLLPPSSPARDPYL,-0.719 ± 1.1
13,LIFSAEMNLIVTDWTVRLSS,0.496 ± 0.8
14,LIGFLEEKVLLFIITWCFQ,inactive
15,LIISRTFVTAPM,inactive
16,LIKLMGKSLTRDRY,-0.771 ± 1.1
17,LILALVPLLCWMVNGW,-0.567 ± 1.1
18,LIMYR,-0.83 ± 0.3
19,LINFSFSDTAVFYVREGWEH,6.846 ± 0.039
20,LIRQMYMGRFYAVNRENH,-0.743 ± 0.79
